In publication doi:10.1101/2024.09.22.614354 (bioRxiv, 2024):

What was measured:
Assay in all cases: fluorescence polarisation
[1] = target: T1, wild type Rb pocket domain (Rb^P) (human, UniProt P06400 380-788)
T1 sequence: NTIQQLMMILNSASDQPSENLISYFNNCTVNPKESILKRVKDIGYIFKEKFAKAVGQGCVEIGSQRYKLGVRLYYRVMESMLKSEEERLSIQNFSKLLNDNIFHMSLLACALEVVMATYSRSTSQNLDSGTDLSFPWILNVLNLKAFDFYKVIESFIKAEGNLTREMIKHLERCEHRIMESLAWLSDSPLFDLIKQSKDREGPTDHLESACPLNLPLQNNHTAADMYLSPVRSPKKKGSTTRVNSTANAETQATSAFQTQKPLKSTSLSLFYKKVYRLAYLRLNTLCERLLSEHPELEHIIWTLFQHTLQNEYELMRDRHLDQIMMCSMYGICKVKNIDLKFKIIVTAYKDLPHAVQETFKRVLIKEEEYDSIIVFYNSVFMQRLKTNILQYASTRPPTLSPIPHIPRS

Rb^P S534R = target: T2, Rb^P S534R (human, UniProt P06400 380-788, S534R)
T2 sequence: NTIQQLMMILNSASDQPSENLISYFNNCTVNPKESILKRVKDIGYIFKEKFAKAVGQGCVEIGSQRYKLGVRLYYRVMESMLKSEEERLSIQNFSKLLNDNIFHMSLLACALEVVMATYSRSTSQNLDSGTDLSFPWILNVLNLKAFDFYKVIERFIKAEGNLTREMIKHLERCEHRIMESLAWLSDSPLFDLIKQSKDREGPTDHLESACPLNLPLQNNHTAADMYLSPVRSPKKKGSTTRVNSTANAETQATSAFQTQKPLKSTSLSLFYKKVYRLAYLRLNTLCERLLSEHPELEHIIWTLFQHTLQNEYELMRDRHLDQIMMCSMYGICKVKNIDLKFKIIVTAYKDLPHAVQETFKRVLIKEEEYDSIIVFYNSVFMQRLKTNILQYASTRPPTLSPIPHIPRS

Rb^P E492Q = target: T3, Rb^P E492Q (human, UniProt P06400 380-788, E492Q)
T3 sequence: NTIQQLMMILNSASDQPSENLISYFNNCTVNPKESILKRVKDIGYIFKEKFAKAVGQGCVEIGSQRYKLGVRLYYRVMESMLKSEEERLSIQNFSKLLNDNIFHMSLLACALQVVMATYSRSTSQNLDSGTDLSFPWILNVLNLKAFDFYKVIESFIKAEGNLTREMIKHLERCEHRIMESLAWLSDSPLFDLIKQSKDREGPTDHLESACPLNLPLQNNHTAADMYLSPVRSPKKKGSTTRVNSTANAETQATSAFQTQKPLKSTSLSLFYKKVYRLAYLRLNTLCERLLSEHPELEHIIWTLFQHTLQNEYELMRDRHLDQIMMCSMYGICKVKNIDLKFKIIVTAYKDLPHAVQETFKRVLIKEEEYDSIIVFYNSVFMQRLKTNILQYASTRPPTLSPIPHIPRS

Rb^P I703V = target: T4, Rb^P I703V (human, UniProt P06400 380-788, I703V)
T4 sequence: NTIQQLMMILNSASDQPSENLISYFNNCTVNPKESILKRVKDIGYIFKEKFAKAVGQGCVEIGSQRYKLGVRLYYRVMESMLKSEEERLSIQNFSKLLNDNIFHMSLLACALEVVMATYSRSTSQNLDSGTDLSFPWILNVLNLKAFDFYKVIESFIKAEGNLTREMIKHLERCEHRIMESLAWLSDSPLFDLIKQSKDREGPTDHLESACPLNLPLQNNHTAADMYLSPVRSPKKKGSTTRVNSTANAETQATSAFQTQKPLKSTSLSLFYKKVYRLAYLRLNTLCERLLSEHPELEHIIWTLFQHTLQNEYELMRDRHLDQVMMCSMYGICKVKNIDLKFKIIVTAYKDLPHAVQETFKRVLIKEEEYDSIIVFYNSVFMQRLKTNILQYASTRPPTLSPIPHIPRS

Rb^P R741C = target: T5, Rb^P R741C (human, UniProt P06400 380-788, R741C)
T5 sequence: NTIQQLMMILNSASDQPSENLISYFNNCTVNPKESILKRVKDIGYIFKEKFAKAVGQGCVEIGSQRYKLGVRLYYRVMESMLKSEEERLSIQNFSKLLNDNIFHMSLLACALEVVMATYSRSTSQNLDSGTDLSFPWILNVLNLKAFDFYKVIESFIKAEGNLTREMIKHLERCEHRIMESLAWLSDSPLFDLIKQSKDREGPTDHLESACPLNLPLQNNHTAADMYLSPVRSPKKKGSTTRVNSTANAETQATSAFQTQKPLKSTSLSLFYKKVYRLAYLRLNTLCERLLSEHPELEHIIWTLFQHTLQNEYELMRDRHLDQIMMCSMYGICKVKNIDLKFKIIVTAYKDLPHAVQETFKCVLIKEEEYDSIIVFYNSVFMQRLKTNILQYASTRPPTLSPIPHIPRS

Binder: DLYCYEQLN (not fully specified; TMR fluorescent label (TMR-E7^LxCxE)) [TMR-E7^LxCxE (LxCxE peptide of the E7 oncoprotein from HPV, TMR-labeled)]
- Kd [1]: 12 nM
- binding result (Rb^P S534R): binds
- binding result (Rb^P E492Q): binds
- binding result (Rb^P I703V): binds
- binding result (Rb^P R741C): binds
